± gives the uncertainty stated by the source.

This data set can be described thus: amyloid nucleation score (Sup35N fusion, yeast selection) (log enrichment); library NNK3; higher = more nucleation; inactive = no reads after selection. In a few lines: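 Sup35N fusions to peptides of 20 random codons were expressed in psi-negative yeast, induced 24 hours with 100 μM copper sulfate, and grown 7 days at 30°C on medium lacking adenine and uracil. Input and output plasmid inserts were sequenced by Illumina. The nucleation score is the DiMSum log enrichment of output over input reads, centred on the mode score of non-aggregating sequences. Sequences with under 100 input reads were excluded.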
Take LLVLKYVMSRTWWSWGA: the amyloid nucleation score entry is “inactive”. Then LLVSACA, with “inactive”; and LLVVNNCIYGMVKRSIGYD, with 2.13 ± 0.07.

In the case of LLVWNLMTRFYYF, the amyloid nucleation score result was “inactive”. As for LLWLLIWEFHT, the entry is “inactive”.

In the case of LLYNTMSLSSSWEY, the amyloid nucleation score is 0.893 ± 0.17. Substance LLYYFYTFTQGR displayed an amyloid nucleation score of -0.148 ± 0.43. As for LMGKTHFLSVVWVVQVG, the amyloid nucleation score entry was “inactive”. As for LMILLGSKFRNANGTTSMLK, the entry is “inactive”; as for LMKSMSNLLYADLKEYSQVG, “inactive”; as for LMNKKCNPGDKTLQIYIRRG, “inactive”. As for LMSLWLLLWGTEESALDMAD, the amyloid nucleation score result is “inactive”. On to LMSYV, for which the amyloid nucleation score result is “inactive”.

LNALLGQYSDISMRISLNVS: the amyloid nucleation score entry is “inactive”. Turning to LNELHMFSGPAYLFSVFRDM, the amyloid nucleation score entry was “inactive”. On to LNFRSV, for which the amyloid nucleation score entry was “inactive”. As for LNFWTIAWARWRIFLCSVLQ, the entry is “inactive”; as for LNLVRNWTISAAGKVALKWS, “inactive”; as for LNMIHSVA, “inactive”. As for LNPLPQRLYSPCSLKFCNDG, the entry is “inactive”; as for LNPVKKLLGRLSGSREG, “inactive”.

Turning to LNPVRSYSKNNIYLLTMLAL, the amyloid nucleation score entry is “inactive”. As to LNRWCCFSVITMCLMANFDA, the amyloid nucleation score stood at 2 ± 0.089.

LNSFQHGY: the amyloid nucleation score entry was “inactive”. In turn, LNSKSSLVPNMLWDMREHAI came in with an amyloid nucleation score of 1.04 ± 0.12.

Take LNSMGYFILFYIYRFLENLD: the amyloid nucleation score entry is “inactive”. In the case of LNSYSLNWRRCMGVQHSLYP, the amyloid nucleation score entry is “inactive”. On to LNVSRGWLVNILPYGCNI, for which the amyloid nucleation score entry was “inactive”. Then LNVTLIMNRRLFMGTFHLW, with “inactive”; and LNWLAFSR, with “inactive”. As to LNYDSSTRLNVLW, the amyloid nucleation score entry was “inactive”. As for LNYEIWNISRFRTFFTGVSA, the amyloid nucleation score is -0.332 ± 0.73. As to LNYFISLSGRSLPVSCNQIY, the amyloid nucleation score entry was “inactive”. As for LNYMSDFYLLLSERTCVYYQ, the figure is 0.754 ± 0.16; as for LNYVIVDSLDKVVQITREYS, “inactive”; as for LPAGFKSR, “inactive”.

Take LPFCLN: the amyloid nucleation score result is “inactive”.

In the case of LPGCSTWFGVFFIHDFNLTL, the amyloid nucleation score came to 1.69 ± 0.091.

For the substance LPHVAVEAVTLAMWVE, the amyloid nucleation score result was “inactive”. In the case of LPICGAD, the amyloid nucleation score result is “inactive”. For the substance LPKCGPRYFDWLNAPEDCMF, the amyloid nucleation score result was “inactive”. As for LPLLTYSSVSVRPLTSW, the entry is “inactive”; as for LPTCYSF, “inactive”. In turn, LQCLVSAKCNFCMYR gave an amyloid nucleation score of 0.869 ± 0.19. As for LQFDYLMIYLVQFSVLWVCL, the entry is “inactive”; as for LQKGGNITCTVNHFMWVFAH, 0.592 ± 0.32; as for LQVHILFMAIKYFSMAVV, “inactive”. As for LQYLVNLLMQWVLRKIVQKV, the entry is “inactive”.

Regarding LRARPLLITFGVEWGSASDP, the amyloid nucleation score came out at 0.465 ± 0.22. Regarding LRATHVSVKGSGRYSVSTFS, the amyloid nucleation score result was “inactive”. As to LRDMTGILPRGRFADETSRF, the amyloid nucleation score result was “inactive”. Substance LREVLCCVSTDSYVFILLRG had an amyloid nucleation score of 1.01 ± 0.14. As for LRGILSIVLVCGENYIKHCG, the entry is “inactive”; as for LRGITLSMQGCTDWFVMYLC, “inactive”; as for LRGYSASSSIVCESSRYARL, “inactive”.

As to LRLGIEMNTIGTLNMGPLSL, the amyloid nucleation score result is “inactive”.

Regarding LRNTFKCVTIRALGSKGGRA, the amyloid nucleation score result is “inactive”. In the case of LRPYHSRVWCVRLQSYSMVR, the amyloid nucleation score result is “inactive”.

Regarding LRRDCFLDRSSLRHPVWEWL, the amyloid nucleation score entry was “inactive”. With LRSCSSWRRLFKRIVQRHWV, the amyloid nucleation score entry was “inactive”. Consider LRSYFALINRLPCTCTRGGM, for which the amyloid nucleation score result was “inactive”. Consider LRTLSGNICANL, for which the amyloid nucleation score result is “inactive”. Consider LRVQHFDTFNPANGSTPKVG, for which the amyloid nucleation score entry was “inactive”. On to LRVVISLVIYMRSSTRICSV, for which the amyloid nucleation score entry was “inactive”. Consider LRYLIYTNYFRLFAWLNSCK, for which the amyloid nucleation score result was “inactive”. Then LSCFNSVAHCDVNSGMFQIV, with “inactive”.

With LSEFYPAMRSTTTPVQNVSG, the amyloid nucleation score entry is “inactive”. As for LSELSRSARVLMFQLFMSRC, the amyloid nucleation score is 1.87 ± 0.081.

Regarding LSFLTHCRHSWVRVRDILWA, the amyloid nucleation score entry is “inactive”. Consider LSGACVHSAAGSALATQYAR, for which the amyloid nucleation score result is “inactive”.

Consider LSGANYLLIRNEGM, for which the amyloid nucleation score result is “inactive”. As for LSGKWNKMVCRLVTSKLIFE, the entry is “inactive”. Regarding LSGLRNAVERVVAGFIHGRV, the amyloid nucleation score entry is “inactive”. As to LSIIRKVADRGDPSDLYKMV, the amyloid nucleation score result was “inactive”. On to LSILHYSLNCLYHRSYMCIL, for which the amyloid nucleation score result is “inactive”. Take LSITDVGI: the amyloid nucleation score result is “inactive”. In the case of LSIVITRYDMSCSAETMFNL, the amyloid nucleation score result was “inactive”. Consider LSLLFALLAFEGVRASLSWG, for which the amyloid nucleation score entry was “inactive”. Then LSLMSSVGCRCSVFSWLYVN, with “inactive”; and LSLNMVTDGIDDNGGNG, with “inactive”; and LSMLI, with “inactive”. With LSNFITTLSTWITLSI, the amyloid nucleation score entry is “inactive”. With LSNQLKDEYHCMWMWWVCPN, the amyloid nucleation score amounted to 1.29 ± 0.13. As for LSRCMWDSDMYRGERYGRRR, the entry is “inactive”. LSRGDLLEYR: the amyloid nucleation score result was “inactive”.

As to LSRLGWYRFCTIMGCYFWIL, the amyloid nucleation score entry is “inactive”. Turning to LSRRNFIRNNVVQ, the amyloid nucleation score result is “inactive”. Regarding LSRSWCWRR, the amyloid nucleation score entry was “inactive”.

As for LSSLVSSSTSCWLWIRTNRL, the amyloid nucleation score result was “inactive”. Then LSSVKCSKWSIFMYMRQYIW, with “inactive”; and LSTENLLVYMWDRLNSILKG, with “inactive”; and LSTNTKSKTPYNVRMSLTGG, with 0.49 ± 0.34. Regarding LSTWSHPSCDRTYVNLKNIV, the amyloid nucleation score result was “inactive”. With LSVMDGTSYAGCELKNVEGW, the amyloid nucleation score result was “inactive”. Turning to LSVMNSVRTWYIIDFATFSC, the amyloid nucleation score result is “inactive”. The substance LSWDVYSRHFG came in with an amyloid nucleation score of 2.31 ± 0.076. On to LSYFSLLGFRYSRGVMGYQM, for which the amyloid nucleation score result was “inactive”.

Take LSYLFFKPFWA: the amyloid nucleation score turned out to be 0.357 ± 0.74. As for LSYNRKEYGNRPGFSEYSST, the amyloid nucleation score entry was “inactive”. As to LSYSSRTRCMLLSLYWCSIR, the amyloid nucleation score entry is “inactive”. Turning to LSYYVS, the amyloid nucleation score result was “inactive”.

Consider LTCPSFCVSRLRESWDESLS, for which the amyloid nucleation score entry was “inactive”. As for LTFISLSLGPDSRFSMTKYY, the entry is “inactive”; as for LTFSSSHCVIMWQFLCKLVG, “inactive”. For LTGFYYFTAYVCPNLILVTR, the amyloid nucleation score turned out to be 0.878 ± 0.14. For the substance LTGRISIARFEVDLGFGCPS, the amyloid nucleation score stood at 0.682 ± 0.18. As for LTLNSKVTDM, the entry is “inactive”; as for LTMALYWTCSLTHILSYGID, 0.062 ± 0.23; as for LTNRADE, “inactive”. On to LTRLSRNHVVRWRYIREGGW, for which the amyloid nucleation score entry is “inactive”. For the substance LTSGVNRISQQPWLSLVDIG, the amyloid nucleation score entry is “inactive”. Regarding LTVRSHHQAGDMCRRRAISP, the amyloid nucleation score entry was “inactive”. For the substance LVASSYS, the amyloid nucleation score result is “inactive”.

LVFHQDMCGNYYFRH displayed an amyloid nucleation score of 0.953 ± 0.13. With LVFHYRARKGLSIIG, the amyloid nucleation score result is “inactive”. Substance LVGNHVSVAIISLVPLSFPH registered an amyloid nucleation score of 2.06 ± 0.067.

LVISNIFRPHSVPWIIVENS: the amyloid nucleation score result was “inactive”. On to LVKPNVDFVT, for which the amyloid nucleation score entry was “inactive”.

Turning to LVKRCVVGFTHFPTIYTCIQ, the amyloid nucleation score result was “inactive”.

In the case of LVLWMVDTSFAGSVDVSEMA, the amyloid nucleation score result was “inactive”. In turn, LVMACCNIMKSATMIILYTM had an amyloid nucleation score of 1.26 ± 0.093. Then LVMKQRLIMLYVKLNKAFLA, with “inactive”; and LVNIDLFNDYRAVCGLLTRD, with “inactive”; and LVNLAELDFVECCLENKMQW, with “inactive”.

LVPIVVGKRFPIYVGVGPKG: the amyloid nucleation score result was “inactive”. Then LVRHARNKDNLFGN, with “inactive”. Consider LVSDEPNLGFDN, for which the amyloid nucleation score result was “inactive”. LVSFWSVRFIICYLRLGLSC: the amyloid nucleation score entry is “inactive”. With LVSKAGLSLRLKG, the amyloid nucleation score entry is “inactive”.

Source of the values: the supplement of paper PMC12042874.
